The results in this text go back to paper PMC10907589, “CD8^+ T cell priming that is required for curative intratumorally anchored anti-4-1BB immunotherapy is constrained by Tregs” (Nature Communications, 2024).

For experiment [1], the target named is T1, murine 4-1BB (Mus musculus, UniProt P20334).
T1 construct: 4-1BB (CD137, TNFRSF9), murine; gene from OriGene cloned into pIRES2 (GFP downstream of an IRES site, not fused); also called CD137; TNFRSF9; source: FreeStyle 293-F, transiently transfected (pIRES2 vector), on cells
The experiment in a line: flow cytometry on cells; FreeStyle 293-F cells transiently transfected with murine 4-1BB, titrated with antibody for 3 h at 4 °C; detected with ɑmIgG1-APC. To be noted: one partner purified.

The target of experiment [2] is T2, murine 4-1BB (murine, UniProt P20334 24-256).
T2 chain: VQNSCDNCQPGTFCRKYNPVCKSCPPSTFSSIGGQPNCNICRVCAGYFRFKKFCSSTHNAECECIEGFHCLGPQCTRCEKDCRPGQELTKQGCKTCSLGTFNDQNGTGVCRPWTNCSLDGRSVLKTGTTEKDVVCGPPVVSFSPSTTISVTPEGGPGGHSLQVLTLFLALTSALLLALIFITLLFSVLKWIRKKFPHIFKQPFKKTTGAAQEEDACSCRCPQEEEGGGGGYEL
The experiment in a line: FACS.

For another experiment, the target named is rat collagen I (rat, UniProt P02454 152-1207; P02466 86-1125). Nature of the experiment: ELISA.
rat collagen I, sequence (P02454 152-1207, chain 1 of 2): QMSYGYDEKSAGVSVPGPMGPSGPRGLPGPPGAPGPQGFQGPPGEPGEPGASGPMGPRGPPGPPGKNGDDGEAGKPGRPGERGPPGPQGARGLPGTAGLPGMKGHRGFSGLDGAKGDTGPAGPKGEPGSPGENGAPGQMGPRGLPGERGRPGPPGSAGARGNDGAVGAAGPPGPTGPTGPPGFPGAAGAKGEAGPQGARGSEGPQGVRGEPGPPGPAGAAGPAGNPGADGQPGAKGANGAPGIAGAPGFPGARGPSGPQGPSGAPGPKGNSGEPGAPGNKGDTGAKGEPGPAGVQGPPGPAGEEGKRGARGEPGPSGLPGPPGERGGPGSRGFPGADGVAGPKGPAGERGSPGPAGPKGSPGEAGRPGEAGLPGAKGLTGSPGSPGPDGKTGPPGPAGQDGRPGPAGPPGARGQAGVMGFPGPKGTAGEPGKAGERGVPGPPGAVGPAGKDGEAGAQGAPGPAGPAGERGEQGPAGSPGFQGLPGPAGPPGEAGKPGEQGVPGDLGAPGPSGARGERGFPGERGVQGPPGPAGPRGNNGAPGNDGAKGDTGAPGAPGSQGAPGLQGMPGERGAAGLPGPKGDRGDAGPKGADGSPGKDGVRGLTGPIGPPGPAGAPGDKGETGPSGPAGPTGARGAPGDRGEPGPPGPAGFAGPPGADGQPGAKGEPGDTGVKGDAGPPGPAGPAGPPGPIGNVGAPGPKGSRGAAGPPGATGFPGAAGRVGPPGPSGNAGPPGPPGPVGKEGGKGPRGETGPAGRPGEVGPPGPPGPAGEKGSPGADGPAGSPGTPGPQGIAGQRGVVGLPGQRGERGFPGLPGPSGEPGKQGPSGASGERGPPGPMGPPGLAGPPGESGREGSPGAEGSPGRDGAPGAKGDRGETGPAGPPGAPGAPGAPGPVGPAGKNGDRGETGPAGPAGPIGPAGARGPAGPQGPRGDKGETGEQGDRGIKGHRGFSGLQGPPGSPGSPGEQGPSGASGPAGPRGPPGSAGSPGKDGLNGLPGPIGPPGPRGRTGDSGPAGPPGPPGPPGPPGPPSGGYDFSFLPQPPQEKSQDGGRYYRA
rat collagen I, sequence (P02466 86-1125, chain 2 of 2): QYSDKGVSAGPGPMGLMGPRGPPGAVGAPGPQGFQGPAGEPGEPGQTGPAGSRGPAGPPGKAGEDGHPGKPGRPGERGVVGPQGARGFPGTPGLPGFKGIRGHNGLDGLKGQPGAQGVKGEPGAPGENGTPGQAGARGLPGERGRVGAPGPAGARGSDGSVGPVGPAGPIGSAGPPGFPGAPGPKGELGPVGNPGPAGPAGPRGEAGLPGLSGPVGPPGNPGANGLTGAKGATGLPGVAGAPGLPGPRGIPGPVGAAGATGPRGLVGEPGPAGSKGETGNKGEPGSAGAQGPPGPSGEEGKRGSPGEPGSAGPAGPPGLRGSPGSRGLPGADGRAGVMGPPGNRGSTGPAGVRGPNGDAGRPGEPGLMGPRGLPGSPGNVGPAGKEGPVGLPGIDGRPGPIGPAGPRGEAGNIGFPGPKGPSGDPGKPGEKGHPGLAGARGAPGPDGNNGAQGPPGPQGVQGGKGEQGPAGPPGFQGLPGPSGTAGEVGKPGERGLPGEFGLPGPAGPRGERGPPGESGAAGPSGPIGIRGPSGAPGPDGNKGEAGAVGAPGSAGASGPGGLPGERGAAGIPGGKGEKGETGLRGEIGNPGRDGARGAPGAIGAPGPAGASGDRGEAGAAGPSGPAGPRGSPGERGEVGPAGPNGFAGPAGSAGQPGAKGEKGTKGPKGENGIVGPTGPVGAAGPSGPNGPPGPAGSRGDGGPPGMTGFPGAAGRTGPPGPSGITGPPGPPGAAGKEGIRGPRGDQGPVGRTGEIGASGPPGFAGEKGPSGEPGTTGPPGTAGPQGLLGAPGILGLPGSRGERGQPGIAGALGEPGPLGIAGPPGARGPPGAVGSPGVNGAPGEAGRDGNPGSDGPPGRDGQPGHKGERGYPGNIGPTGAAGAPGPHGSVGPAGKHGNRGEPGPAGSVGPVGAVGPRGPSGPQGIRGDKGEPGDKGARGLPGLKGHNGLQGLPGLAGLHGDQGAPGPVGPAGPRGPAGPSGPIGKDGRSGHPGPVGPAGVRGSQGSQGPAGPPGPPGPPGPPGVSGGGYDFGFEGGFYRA

B1: ɑ4-1BB-LAIR (ɑ4-1BB antibody clone LOB12.3 fused to the ectodomain of murine LAIR1) (antibody, V domains shown)
VH: DVQLVESGGGLVQPGRSLKLSCAASGFIFSYFDMAWVRQAPTKGLEWVASISPDGSIPYYRDSVKGRFTVSRENAKSSLYLQMDSLRSEDTATYYCARRSYGGYSEIDYWGQGVMVTVSS
VL: DIQMTQSPASLSASLEEIVTITCQASQDIGNWLAWYHQKPGKSPQLLIYGSTSLADGVPSRFSGSSSGSQYSLKISRLQVEDIGIYYCLQAYGAPWTFGGGTKLELK
notes: heavy chain variable region of ɑ4-1BB clone LOB12.3; murine IgG1 heavy chain constant region; flexible (G4S)3 linker, written out from the printed formula; Leukocyte Associated Immunoglobulin Like Receptor 1 (LAIR1), murine, ectodomain; light chain variable region of ɑ4-1BB clone LOB12.3; murine kappa light chain constant region; Chimeric murine IgG1/kappa antibody; LAIR1 is fused to the …
On to B1, for which, in the experiment with murine 4-1BB [1], the binding result is recorded as “binds”. Moreover, the figures for the Kd with murine 4-1BB [2] and with rat collagen I were 5.08 nM and 25 nM, respectively.

B2: ɑ4-1BB antibody (clone LOB12.3), murine IgG1 chimera (antibody, V domains shown)
VH: B1 VH
VL: B1 VL
notes: heavy chain variable region of ɑ4-1BB clone LOB12.3, as in the heavy chain of m1; murine IgG1 heavy chain constant region; light chain variable region of ɑ4-1BB clone LOB12.3, as the light chain of m1; murine kappa light chain constant region; Chimeric murine IgG1/kappa antibody; light and heavy chain encoded in one cassette with a T2A peptide between them; also called α4-1BB; a4-1BB; source: …
In the case of B2, the binding result with murine 4-1BB [1] is on record as “binds”. The molecule further registered a Kd with murine 4-1BB [2] of 4.12 nM.
